Measured values: paper PMC314469, “Protein Interaction Networks by Proteome Peptide Scanning” (PLoS Biology, 2004)

T1: Boi2 SH3 (BOI2_YEAST), P39969
T1 chain: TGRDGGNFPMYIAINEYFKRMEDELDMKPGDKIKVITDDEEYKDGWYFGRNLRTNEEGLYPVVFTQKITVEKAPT

T2: Myo5 SH3 (MYO5_YEAST), Q04439
T2 chain: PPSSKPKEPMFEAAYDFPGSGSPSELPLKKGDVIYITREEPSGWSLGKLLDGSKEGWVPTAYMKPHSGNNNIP

T3: Boi1 SH3 (BOI1_YEAST), P38041
T3 chain: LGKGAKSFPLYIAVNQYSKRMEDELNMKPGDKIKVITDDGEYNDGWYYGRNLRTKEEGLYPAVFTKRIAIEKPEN

T4: Yfr024 SH3 (LSB3_YEAST), P43603
T4 chain: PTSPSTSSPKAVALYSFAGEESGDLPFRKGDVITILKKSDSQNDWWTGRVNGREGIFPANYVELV

T5: Yhr016c SH3 (YSC84_YEAST), P32793
T5 chain: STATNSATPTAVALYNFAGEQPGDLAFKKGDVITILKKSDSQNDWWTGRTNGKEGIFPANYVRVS

T6: Rvs167 SH3 (RV167_YEAST), P39743
T6 chain: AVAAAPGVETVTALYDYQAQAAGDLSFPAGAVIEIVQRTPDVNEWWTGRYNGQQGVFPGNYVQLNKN


Experiments:
Assay in all cases: SPOT array
[1] = target: T1, Boi2 SH3 (BOI2_YEAST), P39969
[2] = target: T2, Myo5 SH3 (MYO5_YEAST), Q04439
[3] = target: T3, Boi1 SH3 (BOI1_YEAST), P38041
[4] = target: T4, Yfr024 SH3 (LSB3_YEAST), P43603
[5] = target: Sho1 SH3 (SHO1_YEAST), P40073
Chain of Sho1 SH3 (SHO1_YEAST), P40073 (P40073 295-366): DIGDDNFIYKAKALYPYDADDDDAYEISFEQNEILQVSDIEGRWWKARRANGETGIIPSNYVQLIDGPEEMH

[6] = target: T5, Yhr016c SH3 (YSC84_YEAST), P32793
[7] = target: T6, Rvs167 SH3 (RV167_YEAST), P39743

normalised SPOT signal, Boehringer light units (BLU); mean over the file's lines of this peptide [1]	normalised SPOT signal, Boehringer light units (BLU); mean over the file's lines of this peptide [2]	normalised SPOT signal, Boehringer light units (BLU); mean over the file's lines of this peptide [3]	normalised SPOT signal, Boehringer light units (BLU); mean over the file's lines of this peptide [4]	normalised SPOT signal, Boehringer light units (BLU); mean over the file's lines of this peptide [5]	normalised SPOT signal, Boehringer light units (BLU); mean over the file's lines of this peptide [6]	normalised SPOT signal, Boehringer light units (BLU); mean over the file's lines of this peptide [7]	Binder
35.7	467	118	204	1960	4.9	235	HFNTKKIPELPSQF [YML051W 376-389]
33.1	96	70	0	66.3	9.3	46.1	GYDEKGNPIPPNNW [YJL216C 137-150]
1.7	215	54.9	158	57900	15.2	42.8	HEREKALPPIPFTT [YLR425W 196-209]
52	921	625	802	52.3	24	92.4	GTGRRRSPSTPIMP [YNR047W 192-205]
30.6	39900	49900	43600	626	69100	88000	GTTNRGPPPLPPRA [YLR144C 18-31]
9.6	108	133	69.9	14.5	18.7	46.8	GSQWKNHPDWPFWV [YLR057W 726-739]
32.3	229	37.2	2.5	11.7	17	29.9	HELVKSDPHFPYGT [YDL117W 838-851]
18.2	159	113	161	115	27.4	30.3	HISDKMNPASPQYF [YDR266C 250-263]
7.4	289	0	27.3	70.5	26.5	13.4	HEASKSFPKAPQAS [YKL105C 877-890]
17.7	258	91.5	294	321	32.6	68.1	HFPSRSQPSDPKLQ [YKR028W 906-919]
32.5	206	129	436	554	52	153	GSYIKRTPKIPEKD [YDR026C 219-232]
27.1	773	148	432	11800	31.6	22.1	GTRPKILPKIPTGA [YOR227W 1148-1161]
135	261	144	20	25.5	45.4	63.6	GTVTKTAPSFPQSS [YPL075W 604-617]
25.5	422	907	509	22.8	82.1	21.1	GSLVKTKPTLPLTK [YLR339C 59-72]
5.8	108	39.8	13.3	25	37.2	25	GYNPKTVPFVPISG [YBR118W 180-193]
2.4	172	91.8	148	64.4	61.8	46.4	HEVPKRSPEKPSNP [YNL278W 806-819]
